Data as given in the supplement of paper PMC10567573.

B1: SMOC2 (parent)
chain: QKPLCASDGRTFLSRCEFQRAKCK
B2: SFRS1 (parent)
chain: RDIDLKNRRGGPPFAFVEFEDPRD

Variants of: B1
Test: protein stability index of a GFP-peptide fusion (GPS, HEK-293T) (PSI 1-6); higher = more stable
Details: c terminus: a fixed tail appended
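Further: lentivirally expressed fusions sorted by FACS into six bins by GFP to DsRed ratio, PSI derived from sequencing read proportions per bin multiplied by bin number.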

Protein stability index of substitutions, site by site:
C23: I 3.41, N 4, P 4.01, A 2.9, R 4.18, G 3.62, Y 1.85, L 3.03, H 3.92, W 2.34, M 3.15, D 3.92, E 3.32, F 1.88, T 2.84
S7: H 2.57, R 2.38, F 2.8, I 2.31, Y 2.15, Q 2, L 2.82, M 1.67, T 2.5, C 1.82, E 2.86, P 3.45, N 3.76, A 2.33, K 3.32
F18: V 4.01, N 4.19, Y 2.21, C 3.56, H 4.32, A 3.93, S 3.82, W 1.6, G 4.44, P 3.49, R 4.37, I 4.24
A21: G 3.68, T 3.4, E 3.1, R 3.18, F 2.44, H 2.7, P 3.98, V 2.96, C 3.48, N 2.68, K 3.9, Y 2.58, Q 3.24, L 2.48, W 1.85
T11: P 3.37, S 3.14, G 2.6, D 3.33, H 2.38, I 2.71, L 2.68, E 3.89, F 2.09, Q 3.74, A 3.12, W 2.81, Y 2.03, M 2.89, V 2.33, R 2.52
L4: H 2.59, F 2.18, I 2.31, S 3.35, R 3.25, D 3.83, T 2.65, E 3.77, V 2.52, N 3.08, P 2.79
D8: R 3.23, A 2.37, M 2.63, K 2.56, E 3.66, V 2.76, C 1.63, H 2.52, L 1.97, P 2.75, I 2.35, Q 1.93, N 2.77, Y 2.67
S14: I 2.48, P 4.08, V 3.22, F 2.64, E 3.08, T 3.4, C 2.82, M 3.66, A 3.42, H 3.73, K 2.93, Q 3.25, Y 2.71, G 3.44, L 3.76
L13: N 3.78, S 2.44, A 1.9, T 3.93, E 3.72, Y 2.52, I 2.82, Q 3.4, G 3.31, C 3.51, K 3.3, W 3.46, P 3.56
R15: H 3.79, I 3.77, W 3.32, P 4.64, M 2.92, K 4.2, A 3.65, T 4.28, D 4.47, C 3.06, E 4.14, Q 3.45, L 3.65, F 3.18
E17: V 2.82, Y 3.05, K 3.19, D 2.11, W 1.54, M 2.6, Q 4.38, I 3.15, R 3.5, A 3.31, N 3.29, P 3.07, F 2.32
P3: Y 2.83, V 2.31, R 3.19, L 2.67, K 2.42, M 3.12, C 2.39, T 2.81, E 4.05, I 2.16
K2: A 2.61, R 3.47, C 2.03, Y 2.48, L 2.99, P 3.18, D 3.62, F 2.75, S 2.93, G 3.16
C5: A 3.31, K 2.19, P 2.94, N 4.28, V 3.16, D 3.29, G 2.44, S 2.91, W 2.31, R 2.5, I 1.74, Q 2.88, F 2.01
R10: N 1.99, T 3.54, M 2.72, V 4.03, K 2.96, W 2.58, Q 3.33, A 3.24, F 2.95, D 3.76, P 3.11, G 3.17, L 3.04, C 2.89
Q19: A 2.98, F 2.53, E 3.48, S 4.18, I 3, W 1.55, Y 3.13, D 3.83, H 3.58, L 2, K 3.67, N 3.34, T 3.36, V 2.71
G9: V 2.93, N 2.82, R 2.94, F 2.2, A 2.58, W 2.82, I 1.9, M 3.19, T 2.67, C 2.35, E 3.48, S 3.42, K 2.14, Y 1.9
C16: V 2.61, Y 3.06, N 4.28, H 4.04, P 3.57, M 3.43, G 4.3, R 4.44, K 3.9, E 4.62, L 2.55, T 3.96, F 3.86, W 2.89, S 3.83
Q1: E 3.39, N 3.36, K 3.41, L 2.17, A 2.81, P 2.64, S 2.68, Y 2.97, R 2.76, M 2.78, H 2.48, V 2.58, D 2.68
F12: L 2.97, R 3.73, N 3.96, H 4.22, Q 4.5, I 3.4, V 3.92, S 4.83, A 3.84, T 3.63, Y 2.49, E 4.5, P 4, G 3.93
K24: Y 2.49, L 2.5, G 2.95, I 2.23, F 1.92, W 2.36, M 2.62, A 3, V 2.62, D 3.35, S 2.88, T 3.18
R20: A 3.14, D 4.16, T 3.83, M 3.57, Y 2.62, W 2.4, H 2.77, F 2.29, K 3.47, G 3.58, I 3.39, E 3.45, N 3.1, S 3.19, V 2.9, C 3.45, Q 3.52, P 3.61
A6: T 2.42, F 1.89, L 2.47, C 2.57, H 3.61, G 2.38, I 2.74, Y 2.71, W 2.69, R 2.74, D 2.9, K 2.82, N 2.63
K22: N 3.07, L 2.11, R 2.95, F 2.65, C 2.72, T 2.71, D 2.9, Y 2.46, I 2.27, P 2.88, W 2.86, H 2.31, V 2.86, S 3.06, G 3.29, E 2.76

Variants of: B2
Test: as above
Details: c terminus: a fixed tail appended

Protein stability index of substitutions, site by site:
A15: C 3.83, Y 3.56
P12: W 3.43
R1: D 4.74
K6: P 3.63
